Experimental data reported in doi:10.1101/2023.08.15.553463.

Target: actin filaments (F-actin) polymerised from chicken skeletal muscle actin (chicken) (UniProt P68139)
Experiment: TIRF microscopy (gliding filament assay); unpatterned PEG-silane coverslips with 50 nM myosin-5; 1 μM phalloidin-labelled F-actin pre-incubated with 1, 2, 5 or 10 nM CPC for 15 min at room temperature; imaging buffer with 2 mM ATP and calmodulin; about 25°C

median time to rupture of paired filament complexes under myosin-5 tension: 26 to 29 s
Substance: capping protein complex (CPC): two CapZAB capping protein heterodimers covalently attached through a linker complex (from UniProt P47753 1-286; P47757-2 1-272)
